# From IntAct's records for PubMed 31515488
# B1: Notch homolog 2 N-terminal-like protein A (Homo sapiens), Q7Z3S9 (parent)
# chain: MCVTYHNGTGYCKCPEGFLGEYCQHRDPCEKNRCQNGGTCVAQAMLGKATCRCASGFTGEDCQYSTSHPCFVSRPCLNGGTCHMLSRDTYECTCQVGFTGKECQWTDACLSHPCANGSTCTTVANQFSCKCLTGFTGQKCETDVNECDIPGHCQHGGTCLNLPGSYQCQCLQGFTGQYCDSLYVPCAPSPCVNGGTCRQTGDFTFECNCLPETVRRGTELWERDREVWNGKEHDEN
# partner: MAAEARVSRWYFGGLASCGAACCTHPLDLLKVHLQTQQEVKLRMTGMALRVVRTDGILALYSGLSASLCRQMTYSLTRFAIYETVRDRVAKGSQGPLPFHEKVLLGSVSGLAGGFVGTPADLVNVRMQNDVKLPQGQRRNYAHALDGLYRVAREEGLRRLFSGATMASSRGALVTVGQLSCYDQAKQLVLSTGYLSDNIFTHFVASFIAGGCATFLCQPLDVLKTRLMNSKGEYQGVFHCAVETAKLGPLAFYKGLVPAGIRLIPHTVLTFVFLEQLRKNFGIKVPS
# B2: Methanethiol oxidase (Homo sapiens), Q13228 (parent)
# chain: MATKCGNCGPGYSTPLEAMKGPREEIVYLPCIYRNTGTEAPDYLATVDVDPKSPQYCQVIHRLPMPNLKDELHHSGWNTCSSCFGDSTKSRTKLVLPSLISSRIYVVDVGSEPRAPKLHKVIEPKDIHAKCELAFLHTSHCLASGEVMISSLGDVKGNGKGGFVLLDGETFEVKGTWERPGGAAPLGYDFWYQPRHNVMISTEWAAPNVLRDGFNPADVEAGLYGSHLYVWDWQRHEIVQTLSLKDGLIPLEIRFLHNPDAAQGFVGCALSSTIQRFYKNEGGTWSVEKVIQVPPKKVKGWLLPEMPGLITDILLSLDDRFLYFSNWLHGDLRQYDISDPQRPRLTGQLFLGGSIVKGGPVQVLEDEELKSQPEPLVVKGKRVAGGPQMIQLSLDGKRLYITTSLYSAWDKQFYPDLIREGSVMLQVDVDTVKGGLKLNPNFLVDFGKEPLGPALAHELRYPGGDCSSDIWI
# partner: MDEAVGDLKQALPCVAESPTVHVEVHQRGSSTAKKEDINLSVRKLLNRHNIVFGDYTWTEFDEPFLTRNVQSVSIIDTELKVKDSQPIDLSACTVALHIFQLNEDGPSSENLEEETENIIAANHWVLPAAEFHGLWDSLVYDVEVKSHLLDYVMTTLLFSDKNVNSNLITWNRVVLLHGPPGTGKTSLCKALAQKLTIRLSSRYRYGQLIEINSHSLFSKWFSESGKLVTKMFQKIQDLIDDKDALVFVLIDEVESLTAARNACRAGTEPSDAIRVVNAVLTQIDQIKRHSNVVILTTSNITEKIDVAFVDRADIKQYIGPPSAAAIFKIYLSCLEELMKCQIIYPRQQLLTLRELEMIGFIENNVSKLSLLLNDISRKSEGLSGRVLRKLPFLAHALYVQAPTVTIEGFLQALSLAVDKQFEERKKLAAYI
# B3: Protein DDI1 homolog 1 (Homo sapiens), Q8WTU0 (parent)
# chain: MLITVYCVRRDLSEVTFSLQVSPDFELRNFKVLCEAESRVPVEEIQIIHMERLLIEDHCSLGSYGLKDGDIVVLLQKDNVGPRAPGRAPNQPRVDFSGIAVPGTSSSRPQHPGQQQQRTPAAQRSQGLASGEKVAGLQGLGSPALIRSMLLSNPHDLSLLKERNPPLAEALLSGSLETFSQVLMEQQREKALREQERLRLYTADPLDREAQAKIEEEIRQQNIEENMNIAIEEAPESFGQVTMLYINCKVNGHPLKAFVDSGAQMTIMSQACAERCNIMRLVDRRWAGVAKGVGTQRIIGRVHLAQIQIEGDFLQCSFSILEDQPMDMLLGLDMLRRHQCSIDLKKNVLVIGTTGTQTYFLPEGELPLCSRMVSGQDESSDKEITHSVMDSGRKEH
# partner: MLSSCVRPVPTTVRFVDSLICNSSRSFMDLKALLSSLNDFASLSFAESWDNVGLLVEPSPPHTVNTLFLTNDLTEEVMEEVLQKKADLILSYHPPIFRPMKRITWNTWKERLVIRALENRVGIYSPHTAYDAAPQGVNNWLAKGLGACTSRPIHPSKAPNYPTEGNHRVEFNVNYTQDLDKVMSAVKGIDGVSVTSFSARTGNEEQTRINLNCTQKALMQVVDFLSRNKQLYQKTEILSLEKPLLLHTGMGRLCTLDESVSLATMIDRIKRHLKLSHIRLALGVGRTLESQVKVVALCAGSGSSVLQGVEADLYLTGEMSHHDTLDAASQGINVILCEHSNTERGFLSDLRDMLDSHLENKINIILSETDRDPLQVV
# B4: Ras-related protein Rab-4A (Homo sapiens), P20338 (parent)
# chain: MSQTAMSETYDFLFKFLVIGNAGTGKSCLLHQFIEKKFKDDSNHTIGVEFGSKIINVGGKYVKLQIWDTAGQERFRSVTRSYYRGAAGALLVYDITSRETYNALTNWLTDARMLASQNIVIILCGNKKDLDADREVTFLEASRFAQENELMFLETSALTGENVEEAFVQCARKILNKIESGELDPERMGSGIQYGDAALRQLRSPRRAQAPNAQECGC
# partner: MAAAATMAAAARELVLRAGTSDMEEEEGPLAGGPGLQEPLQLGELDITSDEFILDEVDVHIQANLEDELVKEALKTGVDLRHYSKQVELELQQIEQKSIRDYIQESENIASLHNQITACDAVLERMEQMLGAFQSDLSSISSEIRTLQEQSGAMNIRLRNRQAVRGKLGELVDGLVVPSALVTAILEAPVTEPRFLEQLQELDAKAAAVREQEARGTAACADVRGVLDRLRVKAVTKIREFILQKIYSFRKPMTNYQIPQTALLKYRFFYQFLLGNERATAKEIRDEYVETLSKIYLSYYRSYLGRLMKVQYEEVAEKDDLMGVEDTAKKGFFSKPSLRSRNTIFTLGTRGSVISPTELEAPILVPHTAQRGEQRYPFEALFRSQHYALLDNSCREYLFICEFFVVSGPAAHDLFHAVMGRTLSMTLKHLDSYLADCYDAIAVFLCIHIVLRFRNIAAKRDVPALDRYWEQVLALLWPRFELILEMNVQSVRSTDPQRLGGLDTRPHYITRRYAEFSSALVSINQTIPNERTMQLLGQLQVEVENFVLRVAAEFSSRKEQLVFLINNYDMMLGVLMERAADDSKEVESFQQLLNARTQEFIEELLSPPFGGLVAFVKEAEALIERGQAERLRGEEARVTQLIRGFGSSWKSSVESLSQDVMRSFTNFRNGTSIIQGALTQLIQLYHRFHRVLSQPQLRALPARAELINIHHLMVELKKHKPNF
# B5: Melanoma-associated antigen 4 (Homo sapiens), P43358 (parent)
# chain: MSSEQKSQHCKPEEGVEAQEEALGLVGAQAPTTEEQEAAVSSSSPLVPGTLEEVPAAESAGPPQSPQGASALPTTISFTCWRQPNEGSSSQEEEGPSTSPDAESLFREALSNKVDELAHFLLRKYRAKELVTKAEMLERVIKNYKRCFPVIFGKASESLKMIFGIDVKEVDPASNTYTLVTCLGLSYDGLLGNNQIFPKTGLLIIVLGTIAMEGDSASEEEIWEELGVMGVYDGREHTVYGEPRKLLTQDWVQENYLEYRQVPGSNPARYEFLWGPRALAETSYVKVLEHVVRVNARVRIAYPSLREAALLEEEEGV
# partner: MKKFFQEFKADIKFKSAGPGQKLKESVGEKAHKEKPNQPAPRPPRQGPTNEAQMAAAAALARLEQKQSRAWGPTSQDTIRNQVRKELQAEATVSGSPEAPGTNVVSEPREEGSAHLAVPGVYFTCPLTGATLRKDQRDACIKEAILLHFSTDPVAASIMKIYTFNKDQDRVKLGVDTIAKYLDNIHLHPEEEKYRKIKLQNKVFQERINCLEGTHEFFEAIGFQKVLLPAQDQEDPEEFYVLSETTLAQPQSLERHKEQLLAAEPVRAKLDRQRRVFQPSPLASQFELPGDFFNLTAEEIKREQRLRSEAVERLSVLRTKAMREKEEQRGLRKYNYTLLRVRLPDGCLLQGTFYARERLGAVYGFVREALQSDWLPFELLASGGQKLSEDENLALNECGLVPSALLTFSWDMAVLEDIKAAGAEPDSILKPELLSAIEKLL
# B6: Angiomotin (Homo sapiens), Q4VCS5 (parent)
# chain: MRNSEEQPSGGTTVLQRLLQEQLRYGNPSENRSLLAIHQQATGNGPPFPSGSGNPGPQSDVLSPQDHHQQLVAHAARQEPQGQEIQSENLIMEKQLSPRMQNNEELPTYEEAKVQSQYFRGQQHASVGAAFYVTGVTNQKMRTEGRPSVQRLNPGKMHQDEGLRDLKQGHVRSLSERLMQMSLATSGVKAHPPVTSAPLSPPQPNDLYKNPTSSSEFYKAQGPLPNQHSLKGMEHRGPPPEYPFKGMPPQSVVCKPQEPGHFYSEHRLNQPGRTEGQLMRYQHPPEYGAARPAQDISLPLSARNSQPHSPTSSLTSGGSLPLLQSPPSTRLSPARHPLVPNQGDHSAHLPRPQQHFLPNQAHQGDHYRLSQPGLSQQQQQQQQQHHHHHHHQQQQQQQPQQQPGEAYSAMPRAQPSSASYQPVPADPFAIVSRAQQMVEILSDENRNLRQELEGCYEKVARLQKVETEIQRVSEAYENLVKSSSKREALEKAMRNKLEGEIRRMHDFNRDLRERLETANKQLAEKEYEGSEDTRKTISQLFAKNKESQREKEKLEAELATARSTNEDQRRHIEIRDQALSNAQAKVVKLEEELKKKQVYVDKVEKMQQALVQLQAACEKREQLEHRLRTRLERELESLRIQQRQGNCQPTNVSEYNAAALMELLREKEERILALEADMTKWEQKYLEENVMRHFALDAAATVAAQRDTTVISHSPNTSYDTALEARIQKEEEEILMANKRCLDMEGRIKTLHAQIIEKDAMIKVLQQRSRKEPSKTEQLSCMRPAKSLMSISNAGSGLLSHSSTLTGSPIMEEKRDDKSWKGSLGILLGGDYRAEYVPSTPSPVPPSTPLLSAHSKTGSRDCSTQTERGTESNKTAAVAPISVPAPVAAAATAAAITATAATITTTMVAAAPVAVAAAAAPAAAAAPSPATAAATAAAVSPAAAGQIPAAASVASAAAVAPSAAAAAAVQVAPAAPAPVPAPALVPVPAPAAAQASAPAQTQAPTSAPAVAPTPAPTPTPAVAQAEVPASPATGPGPHRLSIPSLTCNPDKTDGPVFHSNTLERKTPIQILGQEPDAEMVEYLI
# partner: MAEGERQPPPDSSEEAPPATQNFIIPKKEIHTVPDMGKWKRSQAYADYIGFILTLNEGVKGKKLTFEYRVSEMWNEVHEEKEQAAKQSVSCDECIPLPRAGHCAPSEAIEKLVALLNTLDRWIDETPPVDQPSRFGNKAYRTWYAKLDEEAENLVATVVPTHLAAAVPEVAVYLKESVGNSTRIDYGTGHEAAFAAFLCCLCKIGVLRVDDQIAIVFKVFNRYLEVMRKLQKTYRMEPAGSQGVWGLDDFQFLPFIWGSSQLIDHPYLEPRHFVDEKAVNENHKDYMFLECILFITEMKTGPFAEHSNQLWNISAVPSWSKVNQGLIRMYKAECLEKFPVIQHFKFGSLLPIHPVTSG
# B7: Nucleoplasmin-3 (Homo sapiens), O75607 (parent)
# chain: MAAGTAAALAFLSQESRTRAGGVGGLRVPAPVTMDSFFFGCELSGHTRSFTFKVEEEDDAEHVLALTMLCLTEGAKDECNVVEVVARNHDHQEIAVPVANLKLSCQPMLSLDDFQLQPPVTFRLKSGSGPVRITGRHQIVTMSNDVSEEESEEEEEDSDEEEVELCPILPAKKQGGRP
# partner: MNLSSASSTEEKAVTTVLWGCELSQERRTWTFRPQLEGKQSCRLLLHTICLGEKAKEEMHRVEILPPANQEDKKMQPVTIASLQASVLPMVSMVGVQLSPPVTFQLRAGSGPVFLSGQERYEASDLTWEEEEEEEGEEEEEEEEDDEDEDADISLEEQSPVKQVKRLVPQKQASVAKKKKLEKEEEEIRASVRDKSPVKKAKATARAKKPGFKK
# B8: Tektin-4 (Homo sapiens), Q8WW24 (parent)
# chain: MAQTVPPCELPCKEYDVARNTGAYTSSGLATASFRTSKYLLEEWFQNCYARYHQAFADRDQSERQRHESQQLATETQALAQRTQQDSTRTVGERLQDTHSWKSELQREMEALAAETNLLLAQKQRLERALDATEVPFSITTDNLQCRERREHPNLVRDHVETELLKEAELIRNIQELLKRTIMQAVSQIRLNREHKETCEMDWSDKMEAYNIDETCGRHHSQSTEVQAHPYSTTFQESASTPETRAKFTQDNLCRAQRERLASANLRVLVDCILRDTSEDLRLQCDAVNLAFGRRCEELEDARYKLHHHLHKTLREITDQEHNVAALKQAIKDKEAPLHVAQTRLYLRSHRPNMELCRDAAQFRLLSEVEELNMSLTALREKLLEAEQSLRNLEDIHMSLEKDIAAMTNSLFIDRQKCMAHRTRYPTILQLAGYQ
# Variants of: B1
# Conditions: with dic_human SLC25A10, Q9UBX3
row,Variant,effect of a mutation on the interaction
1,A115T,with no effect

# Variants of: B2
# Conditions: with pch2_human TRIP13, Q15645
row,Variant,effect of a mutation on the interaction
1,R211Q,with no effect

# Variants of: B3
# Conditions: with nif3l_human NIF3L1, Q9GZT8
row,Variant,effect of a mutation on the interaction
1,D323N,with no effect
2,N228T,with no effect
3,R208G,with no effect
4,S63A,with no effect
5,G136S,with no effect
6,R87C,with no effect

# Variants of: B4
# Conditions: with vps52_human VPS52, Q8N1B4
row,Variant,effect of a mutation on the interaction
1,R207H,with no effect

# Variants of: B5
# Conditions: with ubxn6_human UBXN6, Q9BZV1
row,Variant,effect of a mutation on the interaction
1,S41F,with no effect

# Variants of: B6
# Conditions: with ptpa_human PTPA
row,Variant,effect of a mutation on the interaction
1,T899A,with no effect

# Variants of: B7
# Conditions: with npm2_human NPM2, Q86SE8
row,Variant,effect of a mutation on the interaction
1,E149K,with no effect

# Variants of: B8
# Conditions: with atg5_human ATG5, Q9H1Y0
# Sequence of atg5_human ATG5, Q9H1Y0 (Q9H1Y0 whole entry): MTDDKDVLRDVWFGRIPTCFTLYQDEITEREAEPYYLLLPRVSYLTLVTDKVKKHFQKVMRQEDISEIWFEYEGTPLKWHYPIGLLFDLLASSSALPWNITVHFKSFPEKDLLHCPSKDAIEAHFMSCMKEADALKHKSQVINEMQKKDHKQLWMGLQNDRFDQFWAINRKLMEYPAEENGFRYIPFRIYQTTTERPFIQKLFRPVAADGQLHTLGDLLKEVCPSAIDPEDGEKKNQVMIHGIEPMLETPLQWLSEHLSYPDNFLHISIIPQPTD
row,Variant,effect of a mutation on the interaction
1,A80V,with no effect
2,S100G,with no effect
3,I404T,disrupting interaction strength
4,M374V,with no effect
5,M374T,with no effect

# Variants of: B8
# Conditions: with trip6_human TRIP6, Q15654
# Sequence of trip6_human TRIP6, Q15654 (Q15654 whole entry): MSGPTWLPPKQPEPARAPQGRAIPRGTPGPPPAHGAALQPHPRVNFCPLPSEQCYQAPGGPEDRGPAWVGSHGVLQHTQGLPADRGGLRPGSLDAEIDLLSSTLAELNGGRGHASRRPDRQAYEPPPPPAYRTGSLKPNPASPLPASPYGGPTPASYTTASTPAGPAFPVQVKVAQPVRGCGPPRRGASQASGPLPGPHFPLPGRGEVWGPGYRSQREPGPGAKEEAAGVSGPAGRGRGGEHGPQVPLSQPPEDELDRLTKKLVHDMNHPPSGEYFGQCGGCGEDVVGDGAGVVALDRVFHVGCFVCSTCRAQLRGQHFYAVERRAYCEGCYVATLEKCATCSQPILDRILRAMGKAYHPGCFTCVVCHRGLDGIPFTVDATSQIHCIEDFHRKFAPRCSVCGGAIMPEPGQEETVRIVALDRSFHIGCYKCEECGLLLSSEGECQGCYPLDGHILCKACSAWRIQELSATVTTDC
row,Variant,effect of a mutation on the interaction
1,S100G,with no effect
2,T83M,with no effect
3,M374V,with no effect

# Variants of: B8
# Conditions: with maga4_human MAGEA4, P43358
row,Variant,effect of a mutation on the interaction
1,S100G,with no effect
2,T83M,with no effect
3,M374V,with no effect
